# According to IntAct's records for PubMed 19424970:
# B1: UL16-binding protein 2 (Homo sapiens), Q9BZM5 (parent)
# chain: MAAAAATKILLCLPLLLLLSGWSRAGRADPHSLCYDITVIPKFRPGPRWCAVQGQVDEKTFLHYDCGNKTVTPVSPLGKKLNVTTAWKAQNPVLREVVDILTEQLRDIQLENYTPKEPLTLQARMSCEQKAEGHSSGSWQFSFDGQIFLLFDSEKRMWTTVHPGARKMKEKWENDKVVAMSFHYFSMGDCIGWLEDFLMGMDSTLEPSAGAPLAMSSGTTQLRATATTLILCCLLIILPCFILPGI
# Variants of: B1
# Conditions: with nkg2d_human KLRK1, P26718
# Chain of nkg2d_human KLRK1, P26718 (P26718 whole entry): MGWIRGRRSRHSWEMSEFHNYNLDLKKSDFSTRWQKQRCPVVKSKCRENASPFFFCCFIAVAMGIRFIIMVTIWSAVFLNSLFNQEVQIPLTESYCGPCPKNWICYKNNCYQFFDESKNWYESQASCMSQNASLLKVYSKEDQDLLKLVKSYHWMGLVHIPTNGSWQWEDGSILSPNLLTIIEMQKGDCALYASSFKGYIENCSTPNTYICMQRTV
row,Variant,effect of a mutation on the interaction
1,F141L,decreasing interaction strength
